Source: patent US20230212319A1, “NOVEL ANTIGEN BINDING DOMAINS AND SYNTHETIC ANTIGEN RECEPTORS INCORPORATING THE SAME” (University of Southern California, priority 2020, published 2023)
Changes are numbered by the printed parent chain.

B1: 22068 (protein)
chain: MALPVTALLLPLALLLHAARPQLQLQESGPGLVKPSETLSLTCTVSGDSISSGDYYWGWIRQPPGKGLEWIGHIYYSGVTYYNPSLKSRVTISVDTSRNQFSLKLSSVTAADTAVYYCTREDSSNWRSRGQGTLVTVSSLEGGGGSGGGGSGGGGSVEDLKNVFPPEVAVFEPSKAEIAHTQKATLVCLATGFYPDHVELSWWVNGKEVHSGVCTDPQPLKEQPALNDSRYCLSSRLRVSATFWQNPRNHFRCQVQFYGLSENDEWTQDRAKPVTQIVSAEAWGRADCGITSASYHQGVLSATILYEILLGKATLYAVLVSALVLMAMVKRKDSRGRAKRSGSGATNFSLLKQAGDVEENPGPTSMDWIWRILFLVGAATGAHSFEVQLLESGGGLIQPGGSLRLSCAASGFTFSSHAMTWVRQAPGKGLEWVSAISGSGDYTHYADSVKGRFTISRDNSKNTVYLQMNSLRAEDSAVYYCAKDEDGGSLLGHRGQGTLVTVSSTRIQNPDPAVYQLRDSKSSDKSVCLFTDFDSQTNVSQSKDSDVYITDKCVLDMRSMDFKSNSAVAWSNKSDFACANAFNNSIIPEDTFFPSPESSCDVKLVEKSFETDTNLNFQNLSVIGFRILLLKVAGFNLLMTLRLWSSRAKRSGSGVKQTLNFDLLKLAGDVESNPGPSRGHMTEYKPTVRLATRDDVPRAVRTLAAAFADYPATRHTVDPDRHIERVTELQELFLTRVGLDIGKVWVADDGAAVAVWTTPESVEAGAVFAEIGPRMAELSGSRLAAQQQMEGLLAPHRPKEPAWFLATVGVSPDHQGKGLGSAVVLPGVEAAERAGVPAFLETSAPRNLPFYERLGFTVTADVEVPEGPRTWCMTRKPGA
B2: 22126 (protein)
chain: MALPVTALLLPLALLLHAARPEVQLVESGGGLVQPGGSLRLSCAASGFSFSDFWMSWVRQAPGKGLEWVATISQAGSEKDYVDSVKGRFTISRDNAKKSLYLQMNSLRAEDTAVYYCASGVYSFDYRGQGTLVTVSSGTGGGGSGGGGSGGGGSEFDIQMTQSPSSLSASVGDRVTITCKASDHINNWLAWYQQKPGQAPKLLIYGATTLETGVPSRFSGSGSGTDYTLTISSLQPEDFATYYCQQSWNTPWTFGQGTKLEIKRLEDLKNVFPPEVAVFEPSKAEIAHTQKATLVCLATGFYPDHVELSWWVNGKEVHSGVCTDPQPLKEQPALNDSRYCLSSRLRVSATFWQNPRNHFRCQVQFYGLSENDEWTQDRAKPVTQIVSAEAWGRADCGITSASYHQGVLSATILYEILLGKATLYAVLVSALVLMAMVKRKDSRGRAKRSGSGATNFSLLKQAGDVEENPGPTSATMDWIWRILFLVGAATGAHSGPQVQLQESGGGLAQAGGSLRLSCAASGRTFSMGWFRQAPGKEREFVAAITYSGGSPYYASSVRGRFTISRDNAKNTVYLQMNSLKPEDTAVYYCAANPTYGSDWNAENWGQGTQVTVSSGSGGGGSGGGGSGGGGSFEQVQLQQPGAELVKPGASVKMSCKASGYAFSSYWINWMKQKPGQGLEWIGQIYPGDGDTNYNGKFKGRATLTADTSSSTAYMQLSSLTSEDSAVYFCARSITTVVGCAMDYWGQGTSVTVSSTRIQNPDPAVYQLRDSKSSDKSVCLFTDFDSQTNVSQSKDSDVYITDKCVLDMRSMDFKSNSAVAWSNKSDFACANAFNNSIIPEDTFFPSSDVPCDVKLVEKSFETDTNLNFQNLSVIGFRILLLKVAGFNLLMTLRLWSSRAKRSGSGVKQTLNFDLLKLAGDVESNPGPSRGHMTEYKPTVRLATRDDVPRAVRTLAAAFADYPATRHTVDPDRHIERVTELQELFLTRVGLDIGKVWVADDGAAVAVWTTPESVEAGAVFAEIGPRMAELSGSRLAAQQQMEGLLAPHRPKEPAWFLATVGVSPDHQGKGLGSAVVLPGVEAAERAGVPAFLETSAPRNLPFYERLGFTVTADVEVPEGPRTWCMTRKPGA
B3: 22136 (protein)
chain: MALPVTALLLPLALLLHAARPEVQLVESGGGLVQAGGSLRLSCAASGRTFSMGWFRQAPGKEREFVAAITYSGGSPYYADSVKGRFTISRDNAKNTVYLQMNSLKPEDTAVYYCAANPTYGSDWNAENWGQGTQVTVSSGTGGGGSGGGGSGGGGSEFDIQMTQSPSSLSASVGDRVTITCKASDHINNWLAWYQQKPGQAPKLLIYGATTLETGVPSRFSGSGSGTDYTLTISSLQPEDFATYYCQQSWNTPWTFGQGTKLEIKRLEDLKNVFPPEVAVFEPSEAEISHTQKATLVCLATGFYPDHVELSWWVNGKEVHSGVCTDPQPLKEQPALNDSRYCLSSRLRVSATFWQNPRNHFRCQVQFYGLSENDEWTQDRAKPVTQIVSAEAWGRADCGFTSESYQQGVLSATILYEILLGKATLYAVLVSALVLMAMVKRKDSRGRAKRSGSGATNFSLLKQAGDVEENPGPTSATMDWIWRILFLVGAATGAHSGPQVQLQESGGGLAQAGGSLRLSCAASGRTFSMGWFRQAPGKEREFVAAITYSGGSPYYASSVRGRFTISRDNAKNTVYLQMNSLKPEDTAVYYCAANPTYGSDWNAENWGQGTQVTVSSGSGGGGSGGGGSGGGGSFEQVQLQQPGAELVKPGASVKMSCKASGYAFSSYWINWMKQKPGQGLEWIGQIYPGDGDTNYNGKFKGRATLTADTSSSTAYMQLSSLTSEDSAVYFCARSITTVVGCAMDYWGQGTSVTVSSTRIQNPDPAVYQLRDSKSSDKSVCLFTDFDSQTNVSQSKDSDVYITDKCVLDMRSMDFKSNSAVAWSNKSDFACANAFNNSIIPEDTFFPSPESSCDVKLVEKSFETDTNLNFQNLSVIGFRILLLKVAGFNLLMTLRLWSSRAKRSGSGVKQTLNFDLLKLAGDVESNPGPSRGHMTEYKPTVRLATRDDVPRAVRTLAAAFADYPATRHTVDPDRHIERVTELQELFLTRVGLDIGKVWVADDGAAVAVWTTPESVEAGAVFAEIGPRMAELSGSRLAAQQQMEGLLAPHRPKEPAWFLATVGVSPDHQGKGLGSAVVLPGVEAAERAGVPAFLETSAPRNLPFYERLGFTVTADVEVPEGPRTWCMTRKPGA
B4: 22123 (protein)
chain: MALPVTALLLPLALLLHAARPACEVQLLESGGGLIQPGGSLRLSCAASGFTFSSHAMTWVRQAPGKGLEWVSAISGSGDYTHYADSVKGRFTISRDNSKNTVYLQMNSLRAEDSAVYYCAKDEDGGSLLGHRGQGTLVTVSSGTGGGGSGGGGSGGGGSEFDIQMTQSPSSLSASVGDRVTITCKASDHINNWLAWYQQKPGQAPKLLIYGATTLETGVPSRFSGSGSGTDYTLTISSLQPEDFATYYCQQSWNTPWTFGQGTKLEIKRLEDLKNVFPPEVAVFEPSKAEIAHTQKATLVCLATGFYPDHVELSWWVNGKEVHSGVCTDPQPLKEQPALNDSRYCLSSRLRVSATFWQNPRNHFRCQVQFYGLSENDEWTQDRAKPVTQIVSAEAWGRADCGITSASYHQGVLSATILYEILLGKATLYAVLVSALVLMAMVKRKDSRGRAKRSGSGATNFSLLKQAGDVEENPGPTSATMDWIWRILFLVGAATGAHSGPQVQLQESGGGLAQAGGSLRLSCAASGRTFSMGWFRQAPGKEREFVAAITYSGGSPYYASSVRGRFTISRDNAKNTVYLQMNSLKPEDTAVYYCAANPTYGSDWNAENWGQGTQVTVSSGSGGGGSGGGGSGGGGSFEQVQLQQPGAELVKPGASVKMSCKASGYAFSSYWINWMKQKPGQGLEWIGQIYPGDGDTNYNGKFKGRATLTADTSSSTAYMQLSSLTSEDSAVYFCARSITTVVGCAMDYWGQGTSVTVSSTRIQNPDPAVYQLRDSKSSDKSVCLFTDFDSQTNVSQSKDSDVYITDKCVLDMRSMDFKSNSAVAWSNKSDFACANAFNNSIIPEDTFFPSSDVPCDVKLVEKSFETDTNLNFQNLSVIGFRILLLKVAGFNLLMTLRLWSSRAKRSGSGVKQTLNFDLLKLAGDVESNPGPSRGHMTEYKPTVRLATRDDVPRAVRTLAAAFADYPATRHTVDPDRHIERVTELQELFLTRVGLDIGKVWVADDGAAVAVWTTPESVEAGAVFAEIGPRMAELSGSRLAAQQQMEGLLAPHRPKEPAWFLATVGVSPDHQGKGLGSAVVLPGVEAAERAGVPAFLETSAPRNLPFYERLGFTVTADVEVPEGPRTWCMTRKPGA
B5: 22132 (protein)
chain: B4 chain with Q502E, Q506V, A513V, S560D, R563K

What follows are molecules tested on RAJI cells (assay: JNG assay, co-culture with RAJI cells). Settings: JNG cells expressing construct, co-culture with Raji.
Format: cell-based
How it was run: (§1)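 Jurkat-NFAT-GFP (JNG) cells stably expressing SAR constructs via lentiviral transduction and puromycin/blasticidin selection were cocultured with target cells at E:T ~1:2 for ~4–18 h. NFAT-driven GFP was measured by FACS versus parental JNG cells; scores +/- to 5+ denote ~5–50% GFP-positive cells.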

Molecule	NFAT-GFP ASSAY: Raji
B1	+ (refer to approximately 5%, 10%, 20%, 30%, 40% and 50% GFP positive cells)
B2	5+ (refer to approximately 5%, 10%, 20%, 30%, 40% and 50% GFP positive cells)
B3	3+ (refer to approximately 5%, 10%, 20%, 30%, 40% and 50% GFP positive cells)

The molecules below were run on L363 cells (assay: JNG assay, co-culture with L363 cells). Settings: co-culture with L363.
Format: cell-based
How it was run: as §1

Molecule	NFAT-GFP ASSAY: L363
B1	+ (refer to approximately 5%, 10%, 20%, 30%, 40% and 50% GFP positive cells)
B4	3+ (refer to approximately 5%, 10%, 20%, 30%, 40% and 50% GFP positive cells)
B5	4+ (refer to approximately 5%, 10%, 20%, 30%, 40% and 50% GFP positive cells)

Each molecule was assayed on Nalm6 cells (assay: JNG assay, co-culture with Nalm6 cells). Settings: co-culture with Nalm6.
Format: cell-based
How it was run: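 GFP expression induced through the NFAT pathway was monitored by FACS once SAR-bearing Jurkat reporters had been cultured with target cells at an approximate 1:2 ratio for 4 to 18 hours; parental reporter cells served as the baseline.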

Molecule	NFAT-GFP ASSAY: Nalm6
B1	+/- (refer to approximately 5%, 10%, 20%, 30%, 40% and 50% GFP positive cells)
B2	5+ (refer to approximately 5%, 10%, 20%, 30%, 40% and 50% GFP positive cells)
B4	5+ (refer to approximately 5%, 10%, 20%, 30%, 40% and 50% GFP positive cells)
B5	5+ (refer to approximately 5%, 10%, 20%, 30%, 40% and 50% GFP positive cells)
B3	+ (refer to approximately 5%, 10%, 20%, 30%, 40% and 50% GFP positive cells)

The molecules below were run on RS;411 (assay: JNG assay, co-culture with RS;411 cells). Settings: co-culture with RS411.
Format: cell-based
How it was run: as §1

Molecule	NFAT-GFP ASSAY: RS411
B1	+/- (refer to approximately 5%, 10%, 20%, 30%, 40% and 50% GFP positive cells)
B2	+/- (refer to approximately 5%, 10%, 20%, 30%, 40% and 50% GFP positive cells)
B4	4+ (refer to approximately 5%, 10%, 20%, 30%, 40% and 50% GFP positive cells)
B5	4+ (refer to approximately 5%, 10%, 20%, 30%, 40% and 50% GFP positive cells)
B3	+ (refer to approximately 5%, 10%, 20%, 30%, 40% and 50% GFP positive cells)
